Results reported in article PMC4238996 (PLoS Neglected Tropical Diseases, 2014).

B1: unnamed (parent)
chain 1: MQQPTEHTTPMDSLAPPALVIKTPHQAFTAHAAQGPVVIGRDAPAQVRIPDERISRAHVRVTYTSTGWVAVDMSSNGTFVNGVQQATIPITDGLTIHLGHPLEGIAISFSYTIAPPLAVDDATEHIEDTSDPKMVRVGAEIAARREELGLPKRELDRRGVVGQATMTDIEKGRRFPRPFTRDKIEAVLGWPRGHIMWLYEQDIQPDEERTHVLTATTPVPEITGATKMALKGFTAAADSLPPEDDPAFTDRVGALLADLRELESVAASATHSAHGTSAAALVLSDVRKLYKALMLRAAGAPGATLGQRFYAARYRAELTTQDAAAAAGLPVAIIEAAEADAPLDPAATAAVQALLTSLLSQR
chain 2: MALPLGTVVAGYVIEGVLGSGGMGTVYLARHPTLPRSDALKILSAELSQDEQFRVRFIREADLAATLSHPNIVTVFNRGETDDGQLWIAMQYVEGTTASDLHATVLTPARVAAIITDVGAALDYAHSRRVLHRDIKPSNFLVSADHERVLLADFGIARAFDDTTLTAIGSLVGTASYAAPEAIQGGSVDQRADVYSLGCALFRLLTGRAPYEDLRGPAMLMAHVLQPIPRPSHIVVGLPPAIDDVIAVAMAKDPAARFPTAGALAGAARAALSGQPLPQAPPGGPKTRIWAAPPLSYPTTRPPGISGGAISPAGFAGAAHPGLAGAASSSDERGGPRAPRRRKR

Variants of: B1
Experiment: ELISA
Settings: with partner chain of the complex shown; read at the highest MupFHA concentration point, x about 1160 µM; parent: 1.6; read off a plot
For chain 2 MALPLGTVVAGYVIEGVLGSGGMGTVYLARHPTLPRSDALMILSAELSQDEQFRVRFIREADLAATLSHPNIVTVFNRGETDDGQLWIAMQYVEGTTASDLHATVLTPARVAAIITDVGAALDYAHSRRVLHRDIKPSNFLVSADHERVLLADFGIARAFDDTTLTAIGSLVGTASYAAPEAIQGGSVDQRADVYSLGCALFRLLTGRAPYEDLRGPAMLMAHVLQPIPRPSHIVVGLPPAIDDVIAVAMAKDPAARFPTAGALAGAARAALSGQPLPQAPPGGPKTRIWAAPPLSYPTTRPPGISGGAISPAGFAGAAHPGLAGAASSSDERGGPRAPRRRKR [chain 2 K41M], the response was 0.26 O.D. 490 nm.
chain 2 MALPLGTVVAGYVIEGVLGSGGMGTVYLARHPTLPRSDALKILSAELSQDEQFRVRFIREADLAATLSHPNIVTVFNRGETDDGQLWIAMQYVEGTTASDLHATVLTPARVAAIITDVGAALDYAHSRRVLHRDIKPSNFLVSADHERVLLADFGIARAFDDTTLTAIGALVGTASYAAPEAIQGGSVDQRADVYSLGCALFRLLTGRAPYEDLRGPAMLMAHVLQPIPRPSHIVVGLPPAIDDVIAVAMAKDPAARFPTAGALAGAARAALSGQPLPQAPPGGPKTRIWAAPPLSYPTTRPPGISGGAISPAGFAGAAHPGLAGAASSSDERGGPRAPRRRKR [chain 2 S170A] showed a response of 0.21 O.D. 490 nm.
With chain 2 MALPLGTVVAGYVIEGVLGSGGMGTVYLARHPTLPRSDALKILSAELSQDEQFRVRFIREADLAATLSHPNIVTVFNRGETDDGQLWIAMQYVEGTTASDLHATVLTPARVAAIITDVGAALDYAHSRRVLHRDIKPSNFLVSADHERVLLADFGIARAFDDTTLAAIGSLVGTASYAAPEAIQGGSVDQRADVYSLGCALFRLLTGRAPYEDLRGPAMLMAHVLQPIPRPSHIVVGLPPAIDDVIAVAMAKDPAARFPTAGALAGAARAALSGQPLPQAPPGGPKTRIWAAPPLSYPTTRPPGISGGAISPAGFAGAAHPGLAGAASSSDERGGPRAPRRRKR [chain 2 T166A] the response was 1.5 O.D. 490 nm.

Same assay, conditions: with partner chain of the complex shown; read at the highest MupFHA concentration point, x about 2320 µM; parent: 1; read off a plot
Work on chain 2 MALPLGTVVAGYVIEGVLGSGGMGTVYLARHPTLPRSDALKILSAELSQDEQFRVRFIREADLAATLSHPNIVTVFNRGETDDGQLWIAMQYVEGTTASDLHATVLTPARVAAIITDVGAALDYAHSRRVLHRDIKPSNFLVSADHERVLLADFGIARAFDDTTLTAIGALVGTASYAAPEAIQGGSVDQRADVYSLGCALFRLLTGRAPYEDLRGPAMLMAHVLQPIPRPSHIVVGLPPAIDDVIAVAMAKDPAARFPTAGALAGAARAALSGQPLPQAPPGGPKTRIWAAPPLSYPTTRPPGISGGAISPAGFAGAAHPGLAGAASSSDERGGPRAPRRRKR [chain 2 S170A] yielded a response of 0.43 O.D. 490 nm.
For chain 2 MALPLGTVVAGYVIEGVLGSGGMGTVYLARHPTLPRSDALKILSAELSQDEQFRVRFIREADLAATLSHPNIVTVFNRGETDDGQLWIAMQYVEGTTASDLHATVLTPARVAAIITDVGAALDYAHSRRVLHRDIKPSNFLVSADHERVLLADFGIARAFDDTTLTAIGSLVGAASYAAPEAIQGGSVDQRADVYSLGCALFRLLTGRAPYEDLRGPAMLMAHVLQPIPRPSHIVVGLPPAIDDVIAVAMAKDPAARFPTAGALAGAARAALSGQPLPQAPPGGPKTRIWAAPPLSYPTTRPPGISGGAISPAGFAGAAHPGLAGAASSSDERGGPRAPRRRKR [chain 2 T174A], the response was 0.58 O.D. 490 nm.
In the case of chain 2 MALPLGTVVAGYVIEGVLGSGGMGTVYLARHPTLPRSDALKILSAELSQDEQFRVRFIREADLAATLSHPNIVTVFNRGETDDGQLWIAMQYVEGTTASDLHATVLTPARVAAIITDVGAALDYAHSRRVLHRDIKPSNFLVSADHERVLLADFGIARAFDDTTLTAIGSLVGTASYAAPEAIQGGSVDQRADVYSLGCALFRLLTGRAPYEDLRGPAMLMAHVLQPIPRPSHIVVGLPPAIDDVIAVAMAKDPAARFPAAGALAGAARAALSGQPLPQAPPGGPKTRIWAAPPLSYPTTRPPGISGGAISPAGFAGAAHPGLAGAASSSDERGGPRAPRRRKR [chain 2 T260A], the response is reported as 1 O.D. 490 nm.

Variants of: B1
Experiment: sandwich ELISA
Settings: with partner chain of the complex shown; His6-PknQ adsorbed on a 96-well plate; equimolar amounts of GST-tagged substrates; parent: 2; read off a plot
Variant chain 1 MQQPTEHTTPMDSLAPPALVIKTPHQAFTAHAAQGPVVIGADAPAQVRIPDERISRAHVRVTYTSTGWVAVDMSSNGTFVNGVQQATIPITDGLTIHLGHPLEGIAISFSYTIAPPLAVDDATEHIEDTSDPKMVRVGAEIAARREELGLPKRELDRRGVVGQATMTDIEKGRRFPRPFTRDKIEAVLGWPRGHIMWLYEQDIQPDEERTHVLTATTPVPEITGATKMALKGFTAAADSLPPEDDPAFTDRVGALLADLRELESVAASATHSAHGTSAAALVLSDVRKLYKALMLRAAGAPGATLGQRFYAARYRAELTTQDAAAAAGLPVAIIEAAEADAPLDPAATAAVQALLTSLLSQR [chain 1 R41A] has a response of 0.95 O.D. 490 nm.
chain 1 MQQPTEHTTPMDSLAPPALVIKTPHQAFTAHAAQGPVVIGRDAPAQVRIPDERIARAHVRVTYTSTGWVAVDMSSNGTFVNGVQQATIPITDGLTIHLGHPLEGIAISFSYTIAPPLAVDDATEHIEDTSDPKMVRVGAEIAARREELGLPKRELDRRGVVGQATMTDIEKGRRFPRPFTRDKIEAVLGWPRGHIMWLYEQDIQPDEERTHVLTATTPVPEITGATKMALKGFTAAADSLPPEDDPAFTDRVGALLADLRELESVAASATHSAHGTSAAALVLSDVRKLYKALMLRAAGAPGATLGQRFYAARYRAELTTQDAAAAAGLPVAIIEAAEADAPLDPAATAAVQALLTSLLSQR [chain 1 S55A] showed a response of 0.38 O.D. 490 nm.
